# B1: CPEB3 Ribozyme (parent)
# chain: GGGGGCCACAGCAGAAGCGUUCACGUCGCGGCCCCUGUCAGAUUCUGGUGAAUCUGCGAAUUCUGCUGU
# Variants of: B1
# Experiment: self-cleavage, relative activity (ratio to wild type); higher = more cleavage; co-transcriptional
row,Variant,self-cleavage
1,G3U U44C,0.127
2,G3U U44G,0.115
3,G3U U44A,0.0987
4,G4A A8C,0.897
5,G4A A8U,0.86
6,G4A A8G,0.698
7,G4C A8G,0.545
8,G4C A8C,0.578
9,G4C A8U,0.617
10,G4A A51U,0.804
11,G4A U61A,0.477
12,G4A U61G,0.508
13,G3U G58C,0.0675
14,G3U G58A,0.0734
15,G3U A23G,0.0915
16,G4C C45A,0.419
17,G4C C45G,0.477
18,G4C C45U,0.733
19,G4A C7A,0.0893
20,G4A C7U,0.458
21,G3U U64C,0.132
22,G3U U64G,0.138
23,G3U U64A,0.128
24,G4A A16G,0.737

row,Variant,self-cleavage
1,G4A A16U,0.459
2,G4C G19A,0.0646
3,G3U G5C,0.0208
4,G3U G5A,0.0231
5,G3U U49A,0.201
6,G3U U49C,0.176
7,G4A U49C,0.916
8,G4A U49G,0.728
9,G4A G41A,0.506
10,G3U A10C,0.332
11,G3U A10U,0.424
12,G3U C27U,0.0361
13,G3U C27G,0.0583
14,G3U A16U,0.0502
15,G3U A16G,0.0682
16,G3U A16C,0.0591
17,G4A U43A,0.683
18,G4A U43G,0.511
19,G4A U43C,0.651
20,G4A U44G,0.558
21,G4A U44C,0.679
22,G4A U44A,0.646
23,G4A G17C,0.0965
24,G4A G17A,0.175

row,Variant,self-cleavage
1,G3U G19U,0.0853
2,G3U G19A,0.0413
3,G3U A59U,0.0422
4,G3U A59C,0.0549
5,G4C C66G,0.229
6,G4C C66A,0.396
7,G4C C66U,0.678
8,G3U C34A,0.687
9,G3U C34U,0.381
10,G4A C27U,0.19
11,G4A C27A,0.212
12,G4A U21G,0.253
13,G4A U21C,0.465
14,G4C C7A,0.0992
15,G4C C7U,0.129
16,G4A A13U,0.66
17,G4A A13C,0.588
18,G4A U46C,0.828
19,G4A A59G,0.749
20,G4A A59U,0.283
21,G4A A59C,0.32
22,G4A G47C,0.901
23,G4A G47A,0.895
24,G4C C34G,0.0856

row,Variant,self-cleavage
1,G3U C9G,0.446
2,G4A G14C,0.305
3,G4A G14U,0.519
4,G4C A59G,0.37
5,G4C A59U,0.203
6,G3U U61C,0.0446
7,G3U U61A,0.0525
8,G3U G4A,0.0885
9,G3U G4C,0.0209
10,G3U G31U,0.0468
11,G3U G31A,0.074
12,G4A G25U,0.0834
13,G4A G25A,0.117
14,G3U,0.195
15,G4A A52U,0.882
16,G3C U69C,0.495
17,G3C U69G,0.222
18,G4A U53C,0.617
19,G4A G37U,0.154
20,G4A G37C,0.149
21,G4A G37A,0.179
22,G3U C63U,0.114
23,G4A C22U,0.157
24,G4A C22G,0.165

row,Variant,self-cleavage
1,G3U U21C,0.0376
2,G3U U21G,0.0385
3,G3U U21A,0.157
4,G3U U43A,0.0999
5,G3U U43C,0.0372
6,G4A C34U,0.627
7,G4A C34A,0.31
8,G4C A15G,0.496
9,G4C A15C,0.145
10,G4C A16G,0.122
11,G4C A40G,0.526
12,G4C A40C,0.202
13,G4C A40U,0.228
14,G4A C29G,0.103
15,G4A C29U,0.216
16,G4A U38A,0.761
17,G4A U38G,0.107
18,G3U C6U,0.0423
19,G3U C6G,0.0291
20,G4C G14A,0.223
21,G4C G14U,0.149
22,G4C G14C,0.101
23,G4A G28C,0.162
24,G4A G28U,0.127

row,Variant,self-cleavage
1,G4A C66A,0.743
2,G4A C66U,0.852
3,G4A A42C,0.473
4,G4A A42G,0.806
5,G3U G11C,0.0634
6,G3U C22G,0.0464
7,G3U C22A,0.051
8,G3U C22U,0.047
9,G4A C9U,0.953
10,G4A C9G,1.05
11,G4A C9A,1.03
12,G4A C24U,0.352
13,G4A C24G,0.177
14,G4A C24A,0.295
15,G4A G48A,0.92
16,G3U G14U,0.0458
17,G3U G14C,0.0411
18,G3C U64C,0.0655
19,G3U A15G,0.141
20,G3U A15C,0.0817
21,G3U A15U,0.0782
22,G3U G25C,0.0349
23,G3U C12A,0.0925
24,G4C A60U,0.174

row,Variant,self-cleavage
1,G4A C33G,0.68
2,G4A G56C,0.456
3,G4A G56U,0.744
4,G4A U67G,0.918
5,G4A U67A,0.92
6,G4A U67C,0.986
7,G4C C24G,0.117
8,G4C C24A,0.167
9,G3U G17C,0.0675
10,G3U G17U,0.0304
11,G3U C7U,0.0677
12,G3U C7A,0.0696
13,G3U A60G,0.0646
14,G3U A60C,0.0666
15,G3U A60U,0.0237
16,G4C C9A,0.905
17,G4C C9U,0.937
18,G4C C9G,0.899
19,G3U U26C,0.107
20,G3U U26G,0.0677
21,G4C A42U,0.354
22,G4C A42C,0.237
23,G3U G47U,0.175
24,G3U G47C,0.177

row,Variant,self-cleavage
1,G4A A60U,0.264
2,G4A A60G,0.475
3,G4A A60C,0.217
4,G3U U67A,0.406
5,G4A G30A,0.294
6,G4A G30U,0.0939
7,G4A G30C,0.188
8,G4A C6A,0.0589
9,G4A G19U,0.178
10,G4A G19C,0.11
11,G4A C57A,0.245
12,G4A C57U,0.223
13,G4A C57G,0.217
14,G3U U53C,0.0626
15,G3U U53A,0.112
16,G4C C54A,0.225
17,G4C C54U,0.562
18,G4C C54G,0.175
19,G3U G37A,0.0344
20,G3U G37C,0.035
21,G3U G37U,0.0515
22,G4C G17C,0.0898
23,G4A U26C,0.827
24,G3U A40G,0.0981

row,Variant,self-cleavage
1,G3U A40U,0.0917
2,G3U G28U,0.0309
3,G3U G28C,0.0382
4,G4A U55G,0.52
5,G3U G68A,0.554
6,G3U G48A,0.245
7,G4A C45U,0.909
8,G4A C45A,0.808
9,G3U U20A,0.0443
10,G4A A40C,0.216
11,G4C G25C,0.102
12,G4C G25A,0.0767
13,G3U U46C,0.105
14,G3U U46G,0.161
15,G4A A15U,0.455
16,G4A A15C,0.329
17,G4A A15G,0.93
18,G3U C32U,0.0936
19,G4C C39A,0.223
20,G4C C39U,0.261
21,G4A U20A,0.23
22,G4A U20G,0.0767
23,G4A C32A,0.216
24,G4C A51G,0.567

row,Variant,self-cleavage
1,G4C A51U,0.493
2,G4C A51C,0.381
3,G4A G68U,0.978
4,G3U U62A,0.0711
5,G3U U62G,0.108
6,G4A A10G,0.868
7,G4A A10C,0.968
8,G4A U62C,0.587
9,G4A C63U,0.84
10,G4A A23G,0.827
11,G4A A23U,0.886
12,G4C A10U,0.802
13,G4C C35G,0.0833
14,G4C C35A,0.0948
15,G3C U67G,0.219
16,G3C U67A,0.239
17,G4A C12G,0.5
18,G4A C12A,0.477
19,G3U U36C,0.122
20,G3U U36G,0.135
21,G4A G5A,0.103
22,G4A G5C,0.113
23,G4C C12A,0.166
24,G4C C12G,0.148

row,Variant,self-cleavage
1,G4C C12U,0.608
2,G4C C32U,0.198
3,G3U A51C,0.105
4,G3U A51U,0.17
5,G3U A13U,0.105
6,G3U A13C,0.0166
7,G3U A13G,0.181
8,G4A G65C,0.418
9,G4A G65U,0.406
10,G4A G65A,0.735
11,G3U A8C,0.146
12,G3U A8U,0.121
13,G3U A8G,0.0722
14,G4A U69G,0.985
15,G4A U69A,0.912
16,G4A G11A,0.672
17,G4A G11C,0.631
18,G4A G11U,0.629
19,G3U C33A,0.102
20,G3U C33U,0.0906
21,G3U C57U,0.0383
22,G3U C57A,0.0577
23,G4C C22A,0.0918
24,G3U C24U,0.0674

row,Variant,self-cleavage
1,G3U C24A,0.0286
2,G3U C24G,0.0481
3,G4C A13G,0.472
4,G4C A13U,0.302
5,G3U C35A,0.0237
6,G3U C35G,0.0418
7,G4C C29A,0.0787
8,G4C C29G,0.0753
9,G3U U38G,0.0509
10,G3U U38C,0.0341
11,G3U C54A,0.0729
12,G3U C54U,0.148
13,G3U C54G,0.0746
14,G4A G58U,0.9
15,G4A G58A,0.683
16,G3U G50C,0.145
17,G3U G30A,0.0662
18,G3U G30U,0.0357
19,G3U G30C,0.0267
20,G4C C27U,0.0743
21,G3U C45U,0.162
22,G3U G56C,0.0723
23,G3U G56U,0.109
24,G4A C39U,0.544

row,Variant,self-cleavage
1,G4A C39A,0.521
2,G4C G5C,0.212
3,G4C G5U,0.0341
4,G4C C18A,0.0472
5,G4C C18U,0.129
6,G4C C18G,0.0437
7,G4C C57A,0.136
8,G4C A52C,0.38
9,G4C A52G,0.53
10,G4A G31C,0.148
11,G4A G31U,0.159
12,G4A C54G,0.388
13,G4A U36G,0.424
14,G4A U36C,0.792
15,G4A C18G,0.158
16,G4A C18U,0.481
17,G4A C18A,0.147
18,G3U U69A,0.301
19,G3U U69G,0.283
20,G3U U69C,0.46
21,G3U C66U,0.151
22,G3U C66G,0.145
23,G4C G11C,0.273
24,G4C G11U,0.262

row,Variant,self-cleavage
1,G4C G11A,0.375
2,G3U U55C,0.104
3,G4C C63U,0.584
4,G4C C63A,0.217
5,G3U G65A,0.171
6,G3U G65C,0.0613
7,G4C C6A,0.0438
8,G4C C6G,0.0309
9,G3U G41U,0.0372
10,G3U G41C,0.0828
11,G3U G41A,0.0442
12,G3U C29U,0.0459
13,G4A C35G,0.162
14,G4A C35A,0.175
15,G4A G50C,0.808
16,G4A G50U,0.849
17,G4A G50A,0.839
18,G4C A23G,0.349
19,G4C A23C,0.432
20,G3U C39U,0.043
21,G3U C39A,0.0589
22,G3U C39G,0.0714
